Target: His6x-tagged hRNF145 RING protein (human) (UniProt Q96MT1)
Assay: SEC; Superdex 75 10/300 column calibrated with a set of standard proteins; elution volume corresponds to an apparent molecular mass of 39 kDa (predicted weight 18 kD)

Substance: His6x-tagged hRNF145 RING protein (from UniProt Q96MT1-1 550-663) (domain or fragment)
- stoichiometry N: 2

Reference: article PMC5322959
